Reference: patent US20160083436A1 (Janssen / Centocor, published 2016)
Ends that are not written are not given here.

What was measured:
[1] = target: T1, murine serum albumin (murine, UniProt P07724 25-608); assay: KD column of the mouse PK table; method and albumin species not stated there
T1 construct: Bought from Sigma (A3559); also called mouse serum albumin; Mouse

[2] = target: T1, murine serum albumin; assay: SPR, same methods as Example 2
Method: (§1) Each serum albumin was directly immobilized on a ligand channel in the vertical orientation of a GLC chip via standard amine coupling at 2.1 μg/mL at pH 5.0 to obtain surfaces with ligand densities of 500-1000 resonance units. […] The dissociation phases for all concentrations were monitored for two hours at a flow rate of 100 μL/min using PBST (PBS, 0.005% Tween20) as running buffer. A sixth sample (buffer only) was injected to monitor the baseline stability. The surfaces were regenerated using 1 short pulse (18 μL) of 0.8% phosphoric acid.
(§2) The raw response data were first processed by subtracting the buffer only responses and the non-specific binding between the analytes and the chip. Processed data of all five concentrations were globally fit to a 1:1 simple langmuir binding model for each ligand surface.

[3] = target: T2, human serum albumin (human, UniProt P02768 25-609); assay: SPR, same methods as Example 2
T2 construct: Bought from Sigma (A4327); also called HSA
Method: as §1, §2

[4] = target: T1, murine serum albumin; assay: SPR (ProteOn XPR-36), albumin immobilized, ABDCon as analyte
Method: as §1, §2

[5] = target: T2, human serum albumin; assay: as above
Method: as §1, §2

[6] = target: T3, Rhesus serum albumin (Rhesus, UniProt Q28522 17-600, limits assumed); assay: as above
T3 construct: Bought from Sigma (A4297)
Method: as §1, §2

[7] = target: T1, murine serum albumin; assay: SPR
[8] = target: T3, Rhesus serum albumin; assay: SPR

T1 sequence (P07724 25-608 limits assumed): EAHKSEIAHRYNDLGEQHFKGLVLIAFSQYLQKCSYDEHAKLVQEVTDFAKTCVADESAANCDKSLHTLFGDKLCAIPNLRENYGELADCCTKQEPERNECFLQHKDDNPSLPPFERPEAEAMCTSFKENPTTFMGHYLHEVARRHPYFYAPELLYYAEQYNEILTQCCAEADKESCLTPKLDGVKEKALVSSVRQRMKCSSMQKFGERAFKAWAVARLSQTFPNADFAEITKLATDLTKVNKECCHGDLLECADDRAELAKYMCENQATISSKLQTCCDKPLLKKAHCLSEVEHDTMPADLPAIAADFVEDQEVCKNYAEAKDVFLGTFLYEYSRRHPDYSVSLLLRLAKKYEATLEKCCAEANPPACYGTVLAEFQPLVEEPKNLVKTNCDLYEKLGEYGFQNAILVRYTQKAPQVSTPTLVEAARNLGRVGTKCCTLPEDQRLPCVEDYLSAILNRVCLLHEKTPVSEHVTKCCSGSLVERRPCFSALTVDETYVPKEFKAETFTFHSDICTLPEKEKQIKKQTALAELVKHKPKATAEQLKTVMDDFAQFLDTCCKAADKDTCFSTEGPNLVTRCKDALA
T3 sequence (Q28522 17-600 limits assumed): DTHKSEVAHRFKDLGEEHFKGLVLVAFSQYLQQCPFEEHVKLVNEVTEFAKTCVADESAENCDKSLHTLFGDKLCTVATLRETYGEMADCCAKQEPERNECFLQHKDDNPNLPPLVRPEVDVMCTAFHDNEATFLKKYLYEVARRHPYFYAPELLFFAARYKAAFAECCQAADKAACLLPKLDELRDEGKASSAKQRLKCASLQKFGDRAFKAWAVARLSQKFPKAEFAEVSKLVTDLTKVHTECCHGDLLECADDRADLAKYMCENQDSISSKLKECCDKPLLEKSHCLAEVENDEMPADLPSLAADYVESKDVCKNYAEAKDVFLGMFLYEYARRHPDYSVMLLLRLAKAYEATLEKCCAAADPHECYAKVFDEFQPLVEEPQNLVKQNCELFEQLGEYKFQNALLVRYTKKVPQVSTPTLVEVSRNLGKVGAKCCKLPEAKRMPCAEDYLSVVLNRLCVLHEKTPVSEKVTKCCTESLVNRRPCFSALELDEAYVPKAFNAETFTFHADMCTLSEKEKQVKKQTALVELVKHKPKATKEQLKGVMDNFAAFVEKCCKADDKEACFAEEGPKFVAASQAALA

| Binder | Kd [7] | Kd [8] | also measured |
| --- | --- | --- | --- |
| Tencon25-ABDCon fusion protein (designed binder, not shown: C-terminal poly-histidine tag) MLPAPKNLVVSEVTEDSARLSWTAPDAAFDSFLIQYQESEKVGEAIVLTVPGSERSYDLTGLKPGTEYTVSIYGVKGGHRSNPLSAIFTTGGGGSGGGGSLKEAKEKAIEELKKAGITSDYYFDLINKAKTVEGVNALKDEILKA |  |  | Kd [1]: 1.86 nM |
| ABDCon12 (designed binder, also called ABDCon with N-terminal TIDEWL extension; not shown: N-terminal poly histidine tag) TIDEWLLKEAKEKAIEELKKAGITSDYYFDLINKAKTVEGVNALKDEILKA |  |  | Kd [2]: 8.2 nM; Kd [3]: 0.7 nM |
| LKEAKEKAIEELKKAGITSDYYFDLINKAKTVEGVNALKDEILKA (designed binder, not fully specified (N-terminus), Expressed in E. coli with an N-terminal 8-His tag; measured mass 6383 Da; not shown: N-terminal 8-His tag) [ABDCon (non-natural albumin binding domain consensus)] |  |  | Kd [4]: 3.22 nM; koff [4]: 0.000776 s⁻¹; kon [4]: 241000 M⁻¹ s⁻¹; Kd [5]: 0.0748 nM; koff [5]: 3.02e-05 s⁻¹; kon [5]: 404000 M⁻¹ s⁻¹; Kd [6]: 0.0601 nM; koff [6]: 6.78e-05 s⁻¹; kon [6]: 1.13e+06 M⁻¹ s⁻¹ |
| LKEAKEKAIEELKKAGITSDYYFDLINKADTVEGVNALKDEILKA (designed binder, not fully specified, Expressed and purified as described for ABDCon; also called ABDCon K30D; not shown: N-terminal 8-His tag as for ABDCon) [ABDCon8] | 1000 nM | 65 nM |  |
| LKEAKEKAIEELKKAGITSDYYFDLINKAKTVEGVNVLKDEILKA (designed binder, not fully specified, Expressed and purified as described for ABDCon; also called ABDCon A37V; not shown: N-terminal 8-His tag as for ABDCon) [ABDCon10] | 37.8 nM | 1.3 nM |  |
| LKEAKEKAIEELKKAGITSDAYFDLINKAKTVEGVNALKDEILKA (designed binder, not fully specified, Expressed and purified as described for ABDCon; also called ABDCon Y21A; not shown: N-terminal 8-His tag as for ABDCon) [ABDCon2] |  | 17.5 nM |  |
| LKEAKEKAIEELKKAGITSDYVFDLINKAKTVEGVNALKDEILKA (designed binder, not fully specified, Expressed and purified as described for ABDCon; also called ABDCon Y22V; not shown: N-terminal 8-His tag as for ABDCon) [ABDCon6] | 190 nM | 8.4 nM |  |
| LKEAKEKAIEELKKAGITSDYSFDLINKAKTVEGVNALKDEILKA (designed binder, not fully specified, Expressed and purified as described for ABDCon; also called ABDCon Y22S; not shown: N-terminal 8-His tag as for ABDCon) [ABDCon5] | 1650 nM | 104 nM |  |
| LKEAKEKAIEELKKAGITSDYAFDLINKAKTVEGVNALKDEILKA (designed binder, not fully specified, Expressed and purified as described for ABDCon; also called ABDCon Y22A; not shown: N-terminal 8-His tag as for ABDCon) [ABDCon4] | 571 nM | 43.7 nM |  |
| LKEAKEKAIEELKKAGITSDYYFDLINKAKAVEGVNALKDEILKA (designed binder, not fully specified, Expressed and purified as described for ABDCon; also called ABDCon T31A; not shown: N-terminal 8-His tag as for ABDCon) [ABDCon9] | 551 nM | 206 nM |  |
| LKEAKEKAIEELKKAGITSDYYFDLINKAKTVEGVNALKDQILKA (designed binder, not fully specified, Expressed and purified as described for ABDCon; also called ABDCon E41Q; not shown: N-terminal 8-His tag as for ABDCon) [ABDCon7] | 20.6 nM | 0.5 nM |  |
| LKEAKEKAIEELKKAGITSDKYFDLINKAKTVEGVNALKDEILKA (designed binder, not fully specified, Expressed and purified as described for ABDCon; also called ABDCon Y21K; not shown: N-terminal 8-His tag as for ABDCon) [ABDCon3] | 103 nM | 5.1 nM |  |
